Test results taken from article PMC314469, “Protein Interaction Networks by Proteome Peptide Scanning” (PLoS Biology, 2004).

T1: amphyphisin SH3 (AMPH_HUMAN), P49418
T1 chain: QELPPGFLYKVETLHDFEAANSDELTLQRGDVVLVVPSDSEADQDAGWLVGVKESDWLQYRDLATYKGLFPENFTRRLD


Target: T1, amphyphisin SH3 (AMPH_HUMAN), P49418
Assay: SPOT array

Point of comparison: YIFSLVRPARYQRV [P41440 139-152], normalised SPOT signal, Boehringer light units (BLU); mean over the file's lines of this peptide 2220. Against it:
- YSTGPPRPGRLFGS [Q13006 89-102] — lower, 317
- YGLSPLRPPSVLPP [O14686 2329-2343] — lower, 40
- YHPNPKRPGLDREQ [Q8WXI7 2968-2981] — lower, 43.3
- YHPPIFRPMKRINL [Q9HC18 65-78] — lower, 164
- YDTFPEKPPPSPGD [Q9UGQ3 12-26] — lower, 33
- YHLPLRRPSPGFSW [O95428 295-308] — lower, 135
- YKVSPGRPPGSIKA [BAC04448 133-147] — lower, 48.6
- YGHIFRRPKGLFIS [P23368 123-136] — lower, 35.9
- WSEVLHRPWRNHPI [O43397 6-19] — lower, 272
- YHPPIFRPMKRITW [Q9GZT8 65-78] — lower, 145
- YKPPLSRPLRPGPW [Q9H1B5 714-727] — lower, 1210
- YGPNIGRPRKNVIA [Q9HB39 190-203] — lower, 134
- YERTLRRPVPLPHS [O94824 705-718] — lower, 37
- SNKGFRRPSEKNQH [Q9Y4J6 675-688] — lower, 43.2
- YLTVLGRPDRPRDL [O94856 414-427] — lower, 386
- WVTMPRRPPPSGGL [Q9P2P9 924-937] — lower, 31
- YEEPPQKPPRFSQL [Q92625 879-893] — higher, 3280
- WTEDPRRPLPWALS [P42898 339-352] — lower, 38.4
- YLQLPPRPPGTRAS [Q9H4M7 331-345] — lower, 235
- YKVNLKRPSPFWND [Q96HE7 77-90] — lower, 47.4
- SPSAPRRPRRPRRP [Q96QG0 338-351] — higher, 4890
- YKVNLKRPSPFWAE [Q9NR62 73-86] — lower, 30.9
- WSRSPPRPPRERFE [Q9UP58 185-199] — higher, 7550
- YENKPRRPYILKRD [P30990 153-166] — lower, 51.5
- SPPIPRRPAEPPWP [Q9HBU2 317-330] — lower, 33
- YLGKPSRPPHLLLE [Q9H5Q4 87-101] — lower, 44.1
- WSLKLSRPSKDYLL [Q9UL63 619-632] — lower, 1110
- WTDRPERPSKPLLT [O15250 155-168] — higher, 3180
- YGLTFRRPRGLFIT [Q16798 148-161] — lower, 23.2
- YAMGFNRPSKIQEN [Q9UMR2 108-121] — lower, 237

target: endophilin SH3 (SH3G2_HUMAN), Q99962; assay: SPOT array

Point of comparison: YGPNIGRPRKNVIA [Q9HB39 190-203], normalised SPOT signal, Boehringer light units (BLU); mean over the file's lines of this peptide 166. Against it:
- YSTGPPRPGRLFGS [Q13006 89-102] — higher, 364
- YGLSPLRPPSVLPP [O14686 2329-2343] — lower, 118
- YHPNPKRPGLDREQ [Q8WXI7 2968-2981] — lower, 34.1
- YHPPIFRPMKRINL [Q9HC18 65-78] — higher, 250
- YDTFPEKPPPSPGD [Q9UGQ3 12-26] — lower, 97.2
- YIFSLVRPARYQRV [P41440 139-152] — higher, 1780
- YHLPLRRPSPGFSW [O95428 295-308] — higher, 1270
- YKVSPGRPPGSIKA [BAC04448 133-147] — higher, 553
- YGHIFRRPKGLFIS [P23368 123-136] — lower, 110
- WSEVLHRPWRNHPI [O43397 6-19] — higher, 366
- YHPPIFRPMKRITW [Q9GZT8 65-78] — higher, 293
- YKPPLSRPLRPGPW [Q9H1B5 714-727] — higher, 263
- YERTLRRPVPLPHS [O94824 705-718] — higher, 297
- SNKGFRRPSEKNQH [Q9Y4J6 675-688] — lower, 55.9
- YLTVLGRPDRPRDL [O94856 414-427] — lower, 127
- WVTMPRRPPPSGGL [Q9P2P9 924-937] — higher, 2400
- YEEPPQKPPRFSQL [Q92625 879-893] — lower, 131
- WTEDPRRPLPWALS [P42898 339-352] — lower, 110
- YLQLPPRPPGTRAS [Q9H4M7 331-345] — higher, 1230
- YKVNLKRPSPFWND [Q96HE7 77-90] — lower, 28.6
- SPSAPRRPRRPRRP [Q96QG0 338-351] — higher, 1730
- YKVNLKRPSPFWAE [Q9NR62 73-86] — lower, 42.2
- WSRSPPRPPRERFE [Q9UP58 185-199] — higher, 18400
- YENKPRRPYILKRD [P30990 153-166] — higher, 208
- SPPIPRRPAEPPWP [Q9HBU2 317-330] — higher, 1380
- YLGKPSRPPHLLLE [Q9H5Q4 87-101] — higher, 1770
- WSLKLSRPSKDYLL [Q9UL63 619-632] — higher, 2270
- WTDRPERPSKPLLT [O15250 155-168] — higher, 508
- YGLTFRRPRGLFIT [Q16798 148-161] — higher, 347
- YAMGFNRPSKIQEN [Q9UMR2 108-121] — higher, 244
